B1: VH:VL chains; a variant is named by its letters at X, in order (parent)
chain 1: QVQLVQSGAEVKKPGASVKVSCKASGYTFTDYXMHWVRQAPGQGLEWMGXVNPNXXXTTYNQKFEGRVTMTTDTSTSTAYMELRSLRSDDTAVYYCARXNXLDXWGQGTTVTVSS
chain 2: DIQMTQSPSSLSASVGDRVTITCSVSSSVSSIYLHWYQQKPGKAPKLLIYSTSNLASGVPSRFSGSGSGTDFTLTISSLQPEDFATYYCQVYSGYPLTFGGGTKVEIK

In this data set the parent is B1. Briefly: yeast display scFab, FACS + sequencing. The gist of the method: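 Non-specific binding was called from deep sequencing of sorted yeast cells displaying a heavy-chain CDR mutant scFab library. Cells labelled with anti-Myc and biotinylated ovalbumin (260 μg/mL in PBSB, 3 h, room temperature) or soluble membrane proteins (130 μg/mL, 20 min on ice) were FACS-sorted, collecting the top 25% and bottom 10% of binders from two replicates. A sequence was positive when present in ≥3 of 4 pooled positive samples and absent from all negatives, and negative under the converse rule.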
Turning to YEGGGDVA, the non-specific binding call is “no binding”.
The entry for YEGGGDVY is “no binding”; for SEARSSLA it is “no binding”; for SEARSSLV it is “no binding”.
As for FEEEGSAA, the non-specific binding call is “no binding”.
The entry for VEGAAAGS is “no binding”.
The entry for DEARGAGD is “no binding”.
VEETSSLD: the non-specific binding call was “no binding”.
To AATTDSVD belongs “no binding”; to FEETDAGD, “binds”.
Consider FEAGDSGA, for which the non-specific binding call is reported as “no binding”.
The entry for VEEEGSVV is “no binding”; for VEEEGSVD it is “no binding”.
To VEEEGSVS belongs “no binding”; to FEAESYGV, “binds”.
Take AATTDSSS: the non-specific binding call is “no binding”.
As to YEGAASWF, the non-specific binding call is “no binding”.
VEAGDAVA: the non-specific binding call was “no binding”.
To VEGADAVA chain 1 G106S belongs “no binding”; to YEGGGSAV, “no binding”; to SEEASAVY, “no binding”.
For VEGGGDAA, the non-specific binding call was “no binding”.
The entry for VATTDSVD is “no binding”; for VEEEGALD it is “no binding”; for VEEEGDAV it is “no binding”.
On to VEEEGDAA, for which the non-specific binding call was “no binding”.
To SEEEGDVA belongs “no binding”.
To YEGGGSSA belongs “no binding”; to VEAGSDGV, “no binding”.
On to SEARSDWA, for which the non-specific binding call is recorded as “no binding”.
To SEARSDWF belongs “no binding”; to SEARSDWV, “no binding”; to SEARSDWD, “no binding”.
Consider VEEEGDGV, for which the non-specific binding call was “no binding”.
The entry for VEEEGDGA is “no binding”; for SEGGDAWV it is “no binding”; for YEGGGDWF it is “no binding”.
The entry for YEGGGDWV is “no binding”; for VEGGGSSS it is “no binding”.
Turning to VEGGGSSA, the non-specific binding call was “no binding”.
To VEGGGSSV belongs “no binding”; to YEGGADVV, “no binding”.
To YEGGADVF belongs “no binding”.
With YEGGADVD, the non-specific binding call is on record as “no binding”.
Regarding YEGGADVA, the non-specific binding call was “no binding”.
To SEGGDAGD belongs “no binding”; to VEARNDWA chain 1 M81I, “binds”.
Take VEERDAGD: the non-specific binding call is on record as “no binding”.
With VEGGGSVD, the non-specific binding call is given as “no binding”.
The entry for SEARSYLV is “no binding”; for VEGGADVF it is “no binding”; for DEARNAGA it is “no binding”.
Take SEARSSAS: the non-specific binding call is reported as “no binding”.
The entry for SEARSSAD is “no binding”; for SEEGTAGD it is “no binding”; for SEEGTAGA it is “no binding”.
Consider VEAGTAVA, for which the non-specific binding call is recorded as “no binding”.
For the variant VEGGGAAA, the non-specific binding call is “no binding”.
The entry for VEGGGAAS is “no binding”.
The entry for YEERSDAF is “no binding”; for FEERNSLD it is “binds”.
In the case of SEEEGAGD, the non-specific binding call is “no binding”.
The entry for SEARSAVA is “no binding”; for SEARSAVY it is “no binding”.
As for SEARSAVS, the non-specific binding call is “no binding”.
As to SEARSAVV, the non-specific binding call is recorded as “no binding”.
The entry for DEAGGDGY is “no binding”; for SEEEGASV it is “no binding”; for YEEGTDWY it is “no binding”.
Consider SEARSYVV, for which the non-specific binding call is reported as “no binding”.
For VEAGDSSS, the non-specific binding call is recorded as “no binding”.
VEAGDSSA: the non-specific binding call is “no binding”.
SEEEGSAA: the non-specific binding call is listed as “no binding”.
On to VEARGDGA, for which the non-specific binding call was “no binding”.
Turning to FEEGTDWY, the non-specific binding call is on record as “no binding”.
The entry for AATTSFVV is “no binding”.
The entry for DEEASSWA is “no binding”.
In the case of SEEGTDGV, the non-specific binding call is on record as “no binding”.
The entry for SEARSALD is “no binding”; for SEARSALA it is “no binding”.
Take SEARSALV: the non-specific binding call is “no binding”.
As for VEGGGDWA, the non-specific binding call is “no binding”.
To VEGGGDWS belongs “no binding”.
The entry for VEGAASWF is “no binding”; for VEGAASWV it is “no binding”; for FEARDYWD it is “binds”.
To DEGGGSSA belongs “no binding”; to VEEEAFAV, “no binding”; to SEARSAWS, “no binding”.
Consider SEARSAWA, for which the non-specific binding call was “no binding”.
Consider DEGEDAGA, for which the non-specific binding call is “no binding”.
As to SEARSDSV, the non-specific binding call is on record as “no binding”.
To SEARSDSF belongs “no binding”; to VEAGDDAA, “no binding”.
To VEAGDDAV belongs “no binding”.
The entry for SEARSSSD is “no binding”; for SEARSSSY it is “no binding”; for SEARSSSA it is “no binding”.
Regarding SEARSSSV, the non-specific binding call was “no binding”.
To SEARSSSF belongs “no binding”; to SEARSDVV, “no binding”.
Turning to SEARSDVY, the non-specific binding call is “no binding”.
For the variant SEARSDVD, the non-specific binding call was “no binding”.
To SEARSDVF belongs “no binding”.
To AEEKGSGD belongs “no binding”; to FEATASWS, “binds”.
As to SEEGTDWD, the non-specific binding call is listed as “no binding”.
To SEEGTDWY belongs “no binding”; to VEARGDWV, “no binding”.
The entry for SEARNAGD is “no binding”; for SEARSAGV it is “no binding”.
The entry for DEAKAAVD is “binds”; for VEEEGDSA it is “no binding”.
Turning to SEARSSGF, the non-specific binding call is on record as “no binding”.
Take SEARSSGY: the non-specific binding call was “no binding”.
To SEARSSGV belongs “no binding”.
To AEEEGSAA belongs “no binding”.
The entry for SEARSDAS is “no binding”; for SEARSDAA it is “no binding”; for SEARSDAD it is “no binding”.
Consider SEARSDAV, for which the non-specific binding call is “no binding”.
The entry for DEGGGAGS is “no binding”; for VEAGDDVV it is “no binding”; for VEAGDDVY it is “no binding”.
For YEGGGFSV, the non-specific binding call is “no binding”.
To VEAGDDSA belongs “no binding”.
For the variant FEETDASA, the non-specific binding call is given as “binds”.
To FATTDSVD belongs “no binding”; to FEAGDDGV, “no binding”; to SEEASDGA, “no binding”.
For VEGGGDGD, the non-specific binding call is recorded as “no binding”.
To VEGGGDGV belongs “no binding”; to VEGGGDGA, “no binding”; to VEGGGDVY, “no binding”.
To VEGGGDVV belongs “no binding”.
The entry for VEGGGDVD is “no binding”; for VEGGGDVA it is “no binding”.
On to AEARAAGS chain 1 V37I, for which the non-specific binding call is “binds”.
Regarding AEERASAF, the non-specific binding call is listed as “binds”.
Consider AEARSDGA, for which the non-specific binding call was “no binding”.
As for AEAGADVV, the non-specific binding call is listed as “no binding”.
The entry for VEAGDSWV is “no binding”; for YEGGGDGD it is “no binding”.
Turning to YEGGGDGA, the non-specific binding call is listed as “no binding”.
To SEARSYAV belongs “no binding”.
The entry for VEGGGFSV is “no binding”.
To YEGGGDLV belongs “no binding”.
As for YEAGTAVA, the non-specific binding call is “no binding”.
The entry for VEAGDSLD is “no binding”; for SEGADAGD it is “no binding”; for VEEASSWA it is “no binding”.
For DEGAGDGF, the non-specific binding call was “binds”.
Regarding VEAGDDWV, the non-specific binding call is “no binding”.
To VEEEDYSS belongs “binds”; to DEAGTAVA, “no binding”; to DEEEGSAA, “no binding”.
To VEGGGFAY belongs “no binding”.
The entry for VEERDAVA is “no binding”.
Consider YATTSFSF, for which the non-specific binding call is reported as “no binding”.
The entry for YEARNAGA is “no binding”; for VEEEGSWV it is “no binding”.
Turning to VEEAAAGV, the non-specific binding call is given as “no binding”.
To DEGGGDGA belongs “no binding”; to SATTDSVD, “no binding”; to VEARNAGA, “no binding”.
With DEARSDGA, the non-specific binding call is reported as “no binding”.
Take SEAGDAVV: the non-specific binding call is “no binding”.
With VEERDDWF, the non-specific binding call is “no binding”.
Turning to SEARSDLA, the non-specific binding call was “no binding”.
To SEARSDLY belongs “no binding”.
On to SEARSSWV, for which the non-specific binding call was “no binding”.
Consider SEARSSWS, for which the non-specific binding call is “no binding”.
On to VEGGGAVV, for which the non-specific binding call is given as “no binding”.
For VEAGDAGS, the non-specific binding call is on record as “no binding”.
As for VEAGDAGD, the non-specific binding call is recorded as “no binding”.
To SEEEGDWV belongs “no binding”; to AEERDSVV, “no binding”; to VEEEGDWV, “no binding”.
VEEEGDWD: the non-specific binding call was “no binding”.
To SEARSAAV belongs “no binding”; to VEGAADVD, “no binding”.
In the case of VEEEGSGV, the non-specific binding call was “no binding”.
To VEEEGSGA belongs “no binding”; to VEGGGAGV, “no binding”.
Take VEGEDAAA: the non-specific binding call is recorded as “no binding”.
The entry for VEGGGAWA is “no binding”; for VEAGDAAV it is “no binding”.
As for VEAGDAAA, the non-specific binding call is on record as “no binding”.
Consider SEARSDGY, for which the non-specific binding call is given as “no binding”.
Take SEARSDGF: the non-specific binding call was “no binding”.
On to SEARSDGS, for which the non-specific binding call is recorded as “no binding”.
To VEEEGSAV belongs “no binding”; to VEEEGSAD, “no binding”.
The entry for VEAGDALV is “no binding”; for VEEEGAGV it is “no binding”; for VEEEGAGD it is “no binding”.
Regarding SEGADAVA chain 1 G106S, the non-specific binding call is “no binding”.
The entry for DATTDSVD is “no binding”.
The entry for FEATAAGS is “binds”; for VEEEGDVY it is “no binding”.
To VEEEGDVA belongs “no binding”; to VEGEDAGA, “no binding”.
Consider SEARSFGV, for which the non-specific binding call is reported as “no binding”.
SEARNDGA: the non-specific binding call was “no binding”.
To SEEEGSGV belongs “no binding”; to YEERTAAA, “binds”; to DEAGDAVV, “no binding”.
The entry for VEGGGYGV is “no binding”.
Regarding VEGGGSGV, the non-specific binding call is listed as “no binding”.
With SEEGSDAS, the non-specific binding call is “no binding”.
AEAGDAVV: the non-specific binding call is given as “no binding”.
Consider DEGGDAGD, for which the non-specific binding call was “no binding”.
Regarding SEEEGDAV, the non-specific binding call is reported as “no binding”.
DEGGDDAA: the non-specific binding call is given as “no binding”.
To DEETNSGA belongs “binds”; to VEAGDDGA, “no binding”; to SEEASSSA, “no binding”.

Values taken from the emibetuzumab library of Makowski et al. (2022).
